Patent publication US20240109974A1 (SHANDONG SIMCERE BIOPHARMACEUTICAL, published 2024)
Substitutions are numbered along the chain they refer to.

T1: human TNFR2 on the surface of CHO-TNFR2 cells (human, UniProt P20333 23-461)
T1 construct: whole, on cells
T1 sequence (looked up): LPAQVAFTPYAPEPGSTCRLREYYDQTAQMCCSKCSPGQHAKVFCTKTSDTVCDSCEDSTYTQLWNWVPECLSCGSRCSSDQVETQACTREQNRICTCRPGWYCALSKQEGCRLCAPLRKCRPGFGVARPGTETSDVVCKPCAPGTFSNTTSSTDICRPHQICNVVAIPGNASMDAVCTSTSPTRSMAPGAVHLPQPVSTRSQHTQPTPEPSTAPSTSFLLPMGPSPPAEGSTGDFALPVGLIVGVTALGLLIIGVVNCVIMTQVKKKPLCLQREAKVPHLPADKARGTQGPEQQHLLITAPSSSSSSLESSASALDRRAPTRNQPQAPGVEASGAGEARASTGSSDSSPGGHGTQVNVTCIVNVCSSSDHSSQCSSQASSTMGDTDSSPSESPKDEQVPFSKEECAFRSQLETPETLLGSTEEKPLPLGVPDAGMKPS

T2: human TNFR2 (Novoprotein, Cat #C830) (human, UniProt P20333 23-257, limits assumed)
T2 construct: construct not described; also called human TNFR2 protein
T2 sequence (looked up): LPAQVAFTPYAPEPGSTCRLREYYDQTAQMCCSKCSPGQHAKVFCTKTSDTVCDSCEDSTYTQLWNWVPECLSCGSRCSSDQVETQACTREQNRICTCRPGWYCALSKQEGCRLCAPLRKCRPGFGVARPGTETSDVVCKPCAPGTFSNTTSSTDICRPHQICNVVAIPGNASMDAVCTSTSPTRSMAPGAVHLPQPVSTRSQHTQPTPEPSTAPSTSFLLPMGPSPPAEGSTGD

B1: 219-WT (antibody, V domains shown)
VH: EVQLQESGAELVRPGASVKLSCKASGYSFTNYWMNWVKQRPGQGLEWIGMIHPSDTETRLNQNFKDKATLTVDKSSSTSYMQLSSPTSEDSAVYYCARGEGLGAARSVSMDYWGQGTTVTVSS
VL: DILMTQSPSSLSASLGDRVTISCRASQDISNYLNWYQQKPDGTVKVLIYYTAILHSGVPSRFSGSGSGTDYSLTISNLEQEDIATYFCQQGNTLPWTFGGGTKLEIK
notes: Human-murine chimeric wild-type molecule
B2: 224-WT (antibody, V domains shown)
VH: EVQLQESGPEIVKPGASVKLSCTASGFNNKDIYMHWVKQRPEQGLEWIGRIDPATGNTKHDPKFQDKATLSSDTSSNTAYLQFSSLTSEDTAVYYCAHSPYGDFGAMDYWGQGTTVTVSS
VL: DIQMTQSPAIMSASLGERVTMTCTASSSVSSNYLHWYQQKPGSSPKLWIYSTSNLPSGVPARFSGSGSGTSYSLTISSMEAEDAATYYCHQYHRSPWTFGGGTKLEIK
notes: Human-murine chimeric wild-type molecule; also called human-murine chimeric antibody WT of #224
B3: 001-WT (antibody, V domains shown)
VH: EVQLQESGGGLVQPGGSLNLSCAASGFAFSTYDLSWVRQTPEKRLEWVAYINNGGISTYYSDTVKGRFTISRDNAKNTLYLQMSSLKSEDTAMYYCVRGPFYGSANYFDYWGQGTTVTVSS
VL: EIVMTQSPASLSLSVGETVTITCRTSESIYSNLPWYQQKQGKSPQLLVYDATKLAEGVPSRFSGSESGTQYSLKINSLQSEDFGTYYCQHFWVTPWTFGGGTKLEIK
notes: Human-murine chimeric wild-type molecule; also called human-murine chimeric antibody WT of #001
B4: 001-Hu5 (antibody, V domains shown)
VH: B3 VH with Q5V, N19R, T40A, E42G, R44G, S84N, K87R, S88A, M93V, T116L
VL: DIQMTQSPSSLSASVGDRVTITCRTSESIYSNLPWYQQKPGKSPKLLVYDATKLAEGVPSRFSGSGSGTDYTLTISSLQPEDFATYYCQHFWVTPWTFGQGTKVEIK
notes: Humanized form of #001; also called VH1 + VL4
B5: 001-Hu1 (antibody, V domains shown)
VH: B3 VH with Q5V, N19R, T40A, E42G, R44G, S84N, K87R, S88A, M93V, T116L
VL: B4 VL with S43A, V48L
notes: Humanized form of #001; also called VH1 + VL1
B6: 001-Hu2 (antibody, V domains shown)
VH: EVQLVESGGGLVQPGGSLRLSCAASGFAFSTYDLSWVRQAPGKGLEWVAYINNGGISTYYSDTVKGRFTISRDNAKNSLYLQMNSLRAEDTAVYYCVRGPFYGSANYFDYWGQGTLVTVSS
VL: B4 VL with V48I, Y71F
notes: Humanized form of #001; also called VH2 + VL2
B7: 001-Hu3 (antibody, V domains shown)
VH: B6 VH with S78T
VL: B4 VL with S43A, V48I
notes: Humanized form of #001; also called VH1 + VL3
B8: 001-Hu4 (antibody, V domains shown)
VH: B6 VH
VL: B4 VL
notes: Humanized form of #001; also called VH2 + VL4

target: T1, human TNFR2 on the surface of CHO-TNFR2 …; experiment: flow cytometry on CHO-TNFR2 cells; EC50, reference itself
Experimental: (§1) The transfected full-length plasmid of human TNFR2 was purchased from Sino Biological (Cat #HG10417-UT, NCBI Ref Seq: NM_001066.2). The experiment was conducted at a cell density within 80%. The cell medium was discarded; the cells were rinsed with PBS, and digested with 1 ml trypsin for 2 minutes; the digestion was stopped with a Ham's F12 complete medium containing 10% FBS, and then a cell suspension was made. The cell suspension was counted, and then an appropriate amount of cell suspension was centrifuged at 350×g; the supernatant was discarded; a corresponding volume of blocking solution (10% FBS+PBS) at a density of 1×10⁷ cells/ml was added to resuspend the cells, and the mixture was incubated at 4° C. for 30 minutes. After the incubation, the mixture was centrifuged at 350×g to remove the supernatant, and the cells were resuspended in a staining buffer (2% FBS+PBS) to a density of 2×10⁶ cells/ml, and spread onto a 96-well plate, with 50 μl of cell suspension added to each well for later use. The antibody was diluted with PBS for 10-fold gradient dilution from the highest concentration of 20 μg/m (twice the concentration); the diluted antibody was added to the well containing 50 μl of cell suspension, and placed on a microplate shaker for shaking at 500 rpm for 1 minute, so that the antibody was fully mixed with the cells; the mixture was incubated at 4° C. for 1 h. After the incubation, the cells were washed twice with the staining buffer, with 100 μl per well, and centrifuged at 350-g for 5 minutes, and the supernatant was discarded. […] After the staining, similarly, the cells were washed twice with the staining buffer; finally, the cells were resuspended in 200 μl of staining buffer; signals were detected by a flow cytometer (Thermo Attune NxT). […] The binding curve of an antibody was drawn with antibody concentration as the abscissa and corresponding mean fluorescence intensity (MFI) fold as the ordinate, and fitted with four parameters (GraphPad Prism9) to calculate the EC50 value.

Binder | % Relative activity (WT antibody/test antibody) [%]
B1 | 100
B2 | 100
B3 | 100

target: T2, human TNFR2 (Novoprotein, Cat #C830); experiment: competition ELISA, competitor human TNFα-Biotin; IC50 against 001-WT
Experimental: 1 μg/ml human TNFR2 (Novoprotein, Cat #C830) was pre-coated with 100 μl/well […] in an ELISA plate. All the test TNFR2 antibodies were subjected to 2.5-fold gradient dilution from the highest concentration of 30 μg/ml; the diluted antibodies were mixed with 15 ng/ml human TNFα-Biotin (Acro Biosystem, Cat #TNA-H82E3) in equal volume, respectively; the resulting mixture was added to the ELISA plate at 100 μl/well, and incubated with shaking at room temperature for 2.0 hours. The plate was washed, and then a Streptavidin-HRP working solution (diluted at 1:10000) was added at 100 μl/well, and the mixture was incubated with shaking at room temperature for 40 minutes. The plate was washed again, and then the substrate TMB of HRP was added to develop colour. A stop solution was added to stop the reaction, and then a microplate reader (MD 13) was used to read the absorbance value. The inhibitory curve of an antibody was drawn with antibody concentration as the abscissa and corresponding OD value as the ordinate, and fitted with four parameters (GraphPad Prism9) to calculate the IC50 value. The smaller the IC50 value, the stronger the ability of an antibody to inhibit the binding of human TNFα to human TNFR2. The blocking effect of a humanized antibody was normalized to its corresponding human-murine chimeric antibody WT. The higher the percentage value, the better the inhibitory effect of the humanized antibody.

Binder | % Relative activity (WT antibody/test antibody) [%]
B4 | 96.5
B5 | 94.7
B6 | 82.8
B7 | 105
B8 | 105

target: T1, human TNFR2 on the surface of CHO-TNFR2 …; experiment: flow cytometry on CHO-TNFR2 cells; AUC, reference itself
Experimental: as §1

Binder | % Relative activity (Test antibody/WT antibody) [%]
B1 | 100
B2 | 100
B3 | 100
